The text below walks through data of PMC5985169, “Somatostatin Decorated Quantum Dots for Targeting of Somatostatin Receptors” (Iranian Journal of Pharmaceutical Research : IJPR, 2018).

A short description of this data set: HPLC analysis of SST before and after thiolation (elution time related to hydrophilicity). It counts as physicochemical. The note with it: chromatographic, C18 reversed-phase analytical column, linear gradient 26% to 39% acetonitrile in water with 0.1% TFA, 1.0 mL/min, detection at 274 nm. As for the experimental part: Then, thiolated-SST labeled with (1.5 eq) eosin-5-maleimide. Eosin-5-maleimide solution was mixed with thiolated-SST, the reactants were stirred at 600rpm for 30 min. The products were purified by running in Sephadex G-25 mini-column, and identified by thin layer chromatography. HPLC analysis was performed for SST using a linear gradient from 26% to 39% acetonitrile in water, with 0.1% TFA as mobile phase at a flow rate of 1.0 mL/min using a C18-reversed phase analytical column.
The thiolation of SST was investigated using HPLC. […] The single peak eluted at about 19 min corresponded to SST. Thiolated-SST eluted at 18.6 min. The signal consists of multiple neighbouring peaks, these neighbouring peaks appeared between 20.5 and 23 min (Figure 7) and could be related to SST in isomerized form. Neither thiolated-SST nor SST degradation products were detected. Thiolated-SST eluted earlier than SST which is related to the increase in hydrophilicity.
Figure 7 HPLC chromatographs of SST reacted with Traut´s reagent. Signals were detected at 274 nm. Single peak eluted at about 19 min corresponded to SST. Thiolated-SST eluted at 18.6 min.

As to “Thiolated-SST: SST thiolated using Traut's reagent”, the “HPLC elution time (earlier elution related to increase in hydrophilicity)” value was 18.6 min.

Regarding Somatostatin acetate [SST], the “HPLC elution time (earlier elution related to increase in hydrophilicity)” value was “about 19 min”.
